Laboratory results as given in the supplement of paper PMC7877785.
± gives the uncertainty stated by the source.

Assay: self-splicing fitness, log relative to wild type (ln ratio); higher = more splicing; Tetrahymena group I intron in knt gene, E. coli kanamycin selection, DiMSum; sequences stand for … in CUCUCU…GGAGGGAAAAGUUAUCAGGCAUGCACCUGGUAGCUAGUCUUUAAACCAAUAGAUUGCAUCGGUUUAAAAGGCAAGACCGUCAAAUUGCGGGAAAGGGGUCAACAGCCGUUCAGUACCAAGUCUCAGGGGAAACUUUGAGAUGGCCUUGCAAAGGGUAUGGUAAUAAGCUGACGGACAUGGUCCUAACCACGCAGCCAAGUCCUAAGUCAACAGAUCUUCUGUUGAUAUGGAUGCAGUUCACAGACUAAAUGUCGGUCGGGGAAGAUGUAUUCUUCUCAUAAGAUAUAGUCGGACCUCUCCUUAAUGGGAGCUAGCGGAUGAAGUGAUGCAACACUGGAGCCGCUGGGAACUAAUUUGUAUGCGAAAGUAUAUUGAUUAGUUUUGGAGUACUCGUGGUCG
Method in brief: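 A randomised library covering all eight P1ex-region intron nucleotides was built with the intron in the knt kanamycin-resistance gene on pET-22b(+) and held in E. coli BL21(DE3). Cells were grown overnight at 37°C or 30°C on LB agar, with or without 25 μg/mL kanamycin, plus 100 μg/mL carbenicillin, 50 μM IPTG and 0.2% rhamnose, and pooled colonies were amplicon-sequenced on an Illumina HiSeq 2500. DiMSum fitness is the error-weighted combination of wild-type-normalised replicate fold changes, kanamycin versus none.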

Row | Sequence | self-splicing fitness (ln) (30 °C) | self-splicing fitness (ln) (37 °C)
1 | AAAUAGCAAUAUUACGAUGC | -2.26 ± 0.31 | -1.65 ± 0.34
2 | CUAGAGCAAUAUUACGAAGU | -2.56 ± 0.26 | –
3 | AGUGAGCAAUAUUACGGCGG | -1.83 ± 0.31 | -2.29 ± 0.26
4 | UAGCAGCAAUAUUACGUUAC | – | -1.36 ± 0.22
5 | GAAAAGCAAUAUUACGUCUA | -0.367 ± 0.053 | 0.0921 ± 0.066
6 | UUAGAGCAAUAUUACGGCGG | -0.922 ± 0.14 | 0.0643 ± 0.2
7 | GCACAGCAAUAUUACGAGUU | -1.81 ± 0.057 | -0.499 ± 0.072
8 | UGAUAGCAAUAUUACGACUG | 0.053 ± 0.18 | -0.49 ± 0.17
9 | GUCAAGCAAUAUUACGUUAC | -3.02 ± 0.17 | -2.96 ± 0.17
10 | UAAUAGCAAUAUUACGCGUG | -1.37 ± 0.1 | -0.125 ± 0.12
11 | UGAUAGCAAUAUUACGAGGU | -3.79 ± 0.24 | -3.13 ± 0.25
12 | AAAAAGCAAUAUUACGCCUU | -0.374 ± 0.071 | 0.151 ± 0.1
13 | ACCUAGCAAUAUUACGUCUG | -2.84 ± 0.2 | -2.03 ± 0.15
14 | GUCAAGCAAUAUUACGUGCA | -1.58 ± 0.11 | -0.243 ± 0.1
15 | GAAGAGCAAUAUUACGACGG | -2.5 ± 0.37 | -2.67 ± 0.48
16 | CCCCAGCAAUAUUACGGUCU | -3.81 ± 0.13 | -2.73 ± 0.17
17 | UUCCAGCAAUAUUACGGACA | -0.469 ± 0.068 | -0.0722 ± 0.077
18 | CGUCAGCAAUAUUACGACAG | -0.576 ± 0.097 | 0.297 ± 0.13
19 | AGAAAGCAAUAUUACGGAGG | -3.33 ± 0.16 | -2.72 ± 0.3
20 | GGCAAGCAAUAUUACGACGA | -1.37 ± 0.099 | -0.167 ± 0.11
21 | CCAUAGCAAUAUUACGGCAA | -3.37 ± 0.28 | -2.9 ± 0.3

Row | Sequence | self-splicing fitness (ln) (30 °C) | self-splicing fitness (ln) (37 °C)
22 | CUGUAGCAAUAUUACGGUCA | -2.29 ± 0.25 | -2.63 ± 0.34
23 | GAAAAGCAAUAUUACGGCUC | -0.401 ± 0.085 | 0.342 ± 0.12
24 | CUGCAGCAAUAUUACGAGGG | -4.19 ± 0.24 | -1.95 ± 0.17
25 | CUGAAGCAAUAUUACGAAUU | -3.24 ± 0.12 | -1.86 ± 0.14
26 | CAGUAGCAAUAUUACGACAG | -0.798 ± 0.093 | -0.214 ± 0.12
27 | GCAAAGCAAUAUUACGAUGC | -3.46 ± 0.24 | -2.53 ± 0.32
28 | UUCAAGCAAUAUUACGGGAG | -1.78 ± 0.098 | -0.95 ± 0.097
29 | UCGAAGCAAUAUUACGACCA | -1.16 ± 0.15 | -1.09 ± 0.18
30 | CCAAAGCAAUAUUACGACAG | -0.638 ± 0.066 | -0.249 ± 0.089
31 | AAUCAGCAAUAUUACGUUUG | -2.11 ± 0.092 | -1.94 ± 0.13
32 | UUUCAGCAAUAUUACGCCAA | -0.879 ± 0.18 | -0.379 ± 0.18
33 | AACCAGCAAUAUUACGGAGC | -2.17 ± 0.12 | -1.49 ± 0.13
34 | UCGGAGCAAUAUUACGGCGG | -1.42 ± 0.11 | -0.955 ± 0.17
35 | CCUAAGCAAUAUUACGAUGG | -2.4 ± 0.16 | -2.09 ± 0.17
36 | AGCGAGCAAUAUUACGCAGC | -4.05 ± 0.46 | –
37 | GCUCAGCAAUAUUACGAGUG | -1.21 ± 0.063 | -0.148 ± 0.092
38 | UACCAGCAAUAUUACGACCC | -2.84 ± 0.5 | -1.02 ± 0.44
39 | UGGAAGCAAUAUUACGUCGC | -3.16 ± 0.45 | -2.39 ± 0.35
40 | UCGAAGCAAUAUUACGCUGA | -3.44 ± 0.33 | -2.31 ± 0.29
41 | GCGGAGCAAUAUUACGUAAG | -3.35 ± 0.33 | -0.951 ± 0.19
42 | ACAUAGCAAUAUUACGACGU | 0.079 ± 0.081 | 0.0804 ± 0.083

Row | Sequence | self-splicing fitness (ln) (30 °C) | self-splicing fitness (ln) (37 °C)
43 | UCGCAGCAAUAUUACGUUUC | -3.87 ± 0.2 | -1.66 ± 0.12
44 | CUCAAGCAAUAUUACGCUGC | -3.68 ± 0.21 | -2.63 ± 0.19
45 | GCCCAGCAAUAUUACGGGGU | -3.84 ± 0.19 | -2.77 ± 0.24
46 | CCGAAGCAAUAUUACGACCU | -3.73 ± 0.32 | -2.3 ± 0.36
47 | GCCUAGCAAUAUUACGUCAA | -2.16 ± 0.22 | -1.8 ± 0.18
48 | CUAUAGCAAUAUUACGCCCA | -3.06 ± 0.37 | -1.7 ± 0.43
49 | UUUUAGCAAUAUUACGCGGG | -0.691 ± 0.17 | -0.801 ± 0.17
50 | CGCAAGCAAUAUUACGCCGG | -0.626 ± 0.12 | -0.476 ± 0.17
51 | UCGGAGCAAUAUUACGGCCG | -1.49 ± 0.31 | –
52 | AACUAGCAAUAUUACGACCU | -0.168 ± 0.083 | 0.541 ± 0.11
53 | CAAUAGCAAUAUUACGAAUC | -2.66 ± 0.38 | -0.0469 ± 0.27
54 | UAUUAGCAAUAUUACGUACA | -0.773 ± 0.22 | -0.493 ± 0.23
55 | GACUAGCAAUAUUACGCUAU | – | -3.22 ± 0.43
56 | GCUGAGCAAUAUUACGGGAA | -4.56 ± 0.42 | -2.02 ± 0.21
57 | GAUGAGCAAUAUUACGUCGA | -3.33 ± 0.35 | -2.68 ± 0.3
58 | CAAAAGCAAUAUUACGGUAU | -3.42 ± 0.15 | -2.67 ± 0.15
59 | GAAAAGCAAUAUUACGCACG | -0.543 ± 0.09 | -0.904 ± 0.12
60 | ACGGAGCAAUAUUACGGCGU | -2.38 ± 0.2 | -1.48 ± 0.19
61 | UGGGAGCAAUAUUACGGGGU | -1.76 ± 0.33 | -1.7 ± 0.35
